{"source": "paper PMC11277083", "about": "“A Natural Bioactive Peptide from Pinctada fucata Pearls Can Be Used as a Potential Inhibitor of the Interaction between SARS-CoV-2 and ACE2 against COVID-19” (International Journal of Molecular Sciences, 2024)", "target": "recombinant ACE2 protein (coated plate of the RayBio COVID-19 Spike ACE2 binding assay kit II) (UniProt P0DTC2)", "experiment": "ELISA; […] ([…], in PBS), 2 h at room temperature; […]", "data": [{"substance": "KKCH peptide", "values": [{"measurement": "IC50", "value": 413, "unit": "µM"}]}]}
